Assay results from patent US11648290B2, “Cartilage-homing peptides” (FRED HUTCHINSON CANCER CENTER, priority 2015, dated 2023).

How the values were obtained:
[1] = tested on: cartilage; conditions: for Cartilage (C): percentage of signal in the cartilage compared to the blood signal in the heart ventricle / Muscle (M): signal compared to the level in the blood: 3 hours after administration, ligated kidneys, 14C-labelled peptide, tail vein
Procedure: This example describes a dosing scheme for administering knottin peptides to mice in conjunction with kidney ligation. Different dosages of the peptides were administered to Female Harlan athymic nude mice, weighing 20 g-25 g, via tail vein injection (n=2 mice per knottin). The experiment was done in duplicates. The kidneys were ligated to prevent renal filtration of the peptides. Each peptide was radiolabeled by methylating lysines and the N-terminus, so the actual binding agent may contain methyl or dimethyl lysine(s) and a methylated or dimethylated amino terminus.
A target dosage of 50-100 nmol of each peptide carrying 10-25 uCi of ^14C was administered to Female Harlan athymic nude mice while anesthetized. Each peptide was allowed to freely circulate within the animal before the animals were euthanized and sectioned.
This example illustrates peptide homing to cartilage of mice with kidneys that were ligated prior to peptide administration. At the end of the dosing period in EXAMPLE 3, mice were frozen in a hexane/dry ice bath and then frozen in a block of carboxymethylcellulose. […] Thin, frozen sections of animal including imaging of tissues such as brain, tumor, liver, kidney, lung, heart, spleen, pancreas, muscle, adipose, gall bladder, upper gastrointestinal tract, lower gastrointestinal tract, bone, bone marrow, reproductive track, eye, cartilage, stomach, skin, spinal cord, bladder, salivary gland, and other types of tissues were obtained with a microtome, allowed to desiccate in a freezer, and exposed to phosphoimager plates for about ten days.
These plates were developed, and the signal (densitometry) from each organ was normalized to the signal found in the heart blood of each animal. A signal in tissue darker than the signal expected from blood in that tissue indicates peptide accumulation in a region, tissue, structure or cell. For instance, the cartilage is avascular and contains minute amounts of blood. A ratio of at least 170% signal in the cartilage versus heart ventricle was chosen as a reference level for significant targeting to cartilage, which also correlated with clear accumulation in cartilaginous tissues in the images of the slices.
The SEQ ID NO: 24 peptide was radiolabeled as in Example 3 and 100 nmol of peptide was injected into a mouse with intact kidneys. FIG. 5 illustrates the retention of and the tissue distribution in the cartilage of a peptide of SEQ ID NO: 24, 24 hours after administration.

[2] = Temperature stability of peptides (RP-HPLC); assay type: physicochemical
Procedure: This example illustrates peptide stability at high temperatures. Peptides were first suspended in 500 μl of ddH2O to a stock concentration of 2 mg/ml. Reactions were prepared by adding 6.25 μl of peptide from the stock solution with 95 μl ddH2O and incubated at room temperature, 70° C., or 100° C. for one hour in a Thermocycler. RP-HPLC was then run on samples using an Agilent 1260 HPLC equipped with a C-18 Poroshell 120B column. Sample were analyzed by a gradient method with a mobile phase of Solvent A (water with 0.1% TFA) and Solvent B (acetonitrile with 0.1% TFA). Solvent B was ramped up from 5%-45% of the mobile phase over a period of 10 minutes.
Peptides of SEQ ID NO: 28 and SEQ ID NO: 483 were analyzed by HPLC after incubation at room temperature (25° C.), 70° C., or 100° C. for one hour.

[3] = tested on: cartilage; test: Cartilage homing, no method given; conditions: in vivo
[4] = tested on: cartilage (IVD, knee / synovial joints); test: Whole body autoradiography (WBA) of radiolabeled cartilage homing peptides (Example 21); assay type: in vivo, Female Harlan athymic nude mice; conditions: for Signal in the intervertebral disc (IVD), Average: percentage of blood
Procedure: This example illustrates peptide homing to cartilage mice 5 minutes to 48 hours after administration of a radiolabeled peptide. Signal from the radiolabeled peptides was found in all types of cartilage at each time point examined. Each peptide was radiolabeled by methylating […] as described in EXAMPLE 2. As such, the peptide may contain methyl or dimethyl lysines and a methylated or dimethylated amino terminus. A dose of 100 nmol radiolabeled peptide was administered via tail vein injection in Female Harlan athymic nude mice, weighing 20-25 g. The experiment was done in duplicate (n=2 animals per group). In some animals, kidneys were ligated to prevent renal filtration of the radiolabeled peptides and extend plasma half-life. Each radiolabeled peptide was allowed to freely circulate within the animal for the described time period before the animals were euthanized and sectioned.
Whole body autoradiography (WBA) sagittal sectioning was performed as follows. […] Sections were allowed to desiccate in a freezer prior to imaging.
For the autoradiography imaging, tape mounted thin sections were freeze dried and radioactive samples were exposed to phophoimager plates for 7 days.

[5] = Peptide resistance to reducing agents (10 mM DTT, RP-HPLC); assay type: physicochemical; conditions: 10 mM DTT in PBS, room temperature, 30 minutes
Procedure: Several peptides were suspended in 500 μl of ddH2O to a stock concentration of 2 mg/ml. Reactions were prepared by adding 12.5 μg peptide from the stock solution to a 10 mM solution of DTT in PBS and allowed to incubate at room temperature for 30 minutes. RP-HPLC was run on samples using an Agilent 1260 HPLC equipped with a C-18 Poroshell 120B column. Samples were analyzed by a gradient method with a mobile phase of Solvent A (water with 0.1% TFA) and Solvent B (acetonitrile with 0.1% TFA). Solvent B was ramped up from 5%-45% of the mobile phase over a period of 10 minutes.
Peptides were fractionated by HPLC and without any further sample prep, 5 μl of the sample was injected into the mass spectrometer at 1 mg/ml using a CTCPAL® autosampler. Alternatively, if peptides were provided as a lyophilized powder, the sample was dissolved in 100% water to a concentration of 1 mg/ml a Millipore Ziptip C18® column was used to desalt the peptides prior to injection for ES-MS. The mass spectrometer was calibrated using 5 pmol of mixture of five standard peptides to achieve a high accuracy of mass determination with less than a 10 ppm error. Confirmation of peptide disulfide bond formation was achieved by analyzing the m/z isotopic distribution and the exact charge. All peptides tested are shown under reducing and non-reducing conditions.

[6] = 3 hr after 100 nmol radiolabeled peptide
[7] = 24 hr after 100 nmol radiolabeled peptide

Substance | Cartilage (C): percentage of signal in the cartilage compared to the blood signal in the heart ventricle [1] [%] | Muscle (M): signal compared to the level in the blood [1] [%] | also measured
21 (GSGIVCKVCKIICGMQGKKVNICKAPIKCKCKKG) [compound 21] | 270 | 36 | –
22 (GSSEKDCIKHLQRCRENKDCCSKKCSRRGTNPEKRCR) [compound 22] | 337 | 27 | –
23 (GSVRIPVSCKHSGQCLKPCKDAGMRFGKCMNGKCDCTPK) [compound 23] | 497 | 26 | –
24 (GSGVPINVKCRGSRDCLDPCKKAGMRFGKCINSKCHCTP) [compound 24] | 624 | 34 | –
25 (GSAVCVYRTCDKDCKRRGYRSGKCINNACKCYPYG) [compound 25] | 358 | 24 | –
26 (GSISCTGSKQCYDPCKRKTGCPNAKCMNKSCKCYGCG) [compound 26] | 413 | 38 | –
27 (GSQVQTNVKCQGGSCASVCRREIGVAAGKCINGKCVCYRN) [compound 27] | 448 | 31 | –
28 (GSEVIRCSGSKQCYGPCKQQTGCTNSKCMNKVCKCYGCG) [compound 28] | 361 | 17 | –
29 (GSACKGVFDACTPGKNECCPNRVCSDKHKWCKWKL) [compound 29] | 243 | 26 | –
30 (GSQIYTSKECNGSSECYSHCEGITGKRSGKCINKKCYCYR) [compound 30] | 221 | 26 | –
31 (GSGCLEFWWKCNPNDDKCCRPKLKCSKLFKLCNFSFG) [compound 31] | 306 | 68 | –
33 (GSGCFGYKCDYYKGCCSGYVCSPTWKWCVRPGPGR) [compound 33] | 179 | 28 | –
196 (GSQKILSNRCNNSSECIPHCIRIFGTRAAKCINRKCYCYP) [compound 196] | 291 | 30 | –
198 (GSAVCNLKRCQLSCRSLGLLGKCIGDKCECVKHG) [compound 198] | 276 | 26 | –
433 (GSKCLPPGKPCYGATQKIPCCGVCSHNNCT) [compound 433] | 156 | 20 | –
483 (GSISIGIKCSPSIDLCEGQCRIRKYFTGYCSGDTCHCSG) [compound 483] | 67 | 24 | –
485 (METDTLLLWVLLLWVPGSTG) [compound 485] | 92 | 21 | –
GSEVIRCSGSKQCYGPCKQQTGCTNSKCMNKVCKCYGCG [SEQ ID NO: 28] | – | – | Stability after heat incubation (HPLC) ([2]; 70 C for 1 hour): resistant to heat-induced degradation; Stability after heat incubation (HPLC) ([2]; 100 C for 1 hour): underwent various degrees of degradation
GSGDCLPHLKRCKENNDCCSKKCKRRGANPEKRCR [SEQ ID NO: 205] | – | – | Cartilage homing [3]: home to cartilage
GSGDCLPHLRRCRENNDCCSRRCRRRGANPERRCR [SEQ ID NO: 200] | – | – | Cartilage homing (qualitative, WBA) ([4]; 100 nmol radiolabeled peptide): showed signal in cartilage and exhibited cartilage homing properties; Change of signal in IVD and joint cartilage between 3 and 24 hours ([4]; 100 nmol radiolabeled peptide): maintained or increased; Signal in the intervertebral disc (IVD), Average [4, 6]: 1809%; Signal in synovial joints as a percentage of signal in blood, Average [4, 7]: 4991%; Signal in the intervertebral disc (IVD), Average [4, 7]: 3542%
GSKCLPPGKPCYGATQKIPCCGVCSHNNCT [SEQ ID NO: 433, reference compound] | – | – | Homing to cartilage (autoradiography, FIG. 11) ([1]; 24 hours after administration of 100 nmol): did not home to cartilage and was seen in the bone marrow
GSQKILSNRCNNSSECIPHCIRIFGTRAAKCINRKCYCYP [SEQ ID NO: 196] | – | – | HPLC peaks under non-reducing versus reducing conditions (resistance to reduction by DTT) [5]: Peaks showing the peptide under non-reducing conditions and reducing conditions are overlapping
GSQVQTNVRCQGGSCASVCRREIGVAAGRCINGRCVCYRN [SEQ ID NO: 114] | – | – | Cartilage homing (qualitative, WBA) ([4]; 100 nmol radiolabeled peptide): showed signal in cartilage and exhibited cartilage homing properties; Change of signal in IVD and joint cartilage between 3 and 24 hours ([4]; 100 nmol radiolabeled peptide): reduced residence time with a signal near the limit of detection by 24 hours; Signal in synovial joints as a percentage of signal in blood, Average [4, 6]: 1175%; Signal in the intervertebral disc (IVD), Average [4, 6]: 1075%; Signal in the intervertebral disc (IVD), Average [4, 7]: 191%
GSSEKDCIKHLQRCRENKDCCSKKCSRRGTNPEKRCR [SEQ ID NO: 22] | – | – | Cartilage homing [3]: home to cartilage
GSSERDCIRHLQRCRENRDCCSRRCSRRGTNPERRCR [SEQ ID NO: 109] | – | – | Cartilage homing (qualitative, WBA) ([4]; 100 nmol radiolabeled peptide): showed signal in cartilage and exhibited cartilage homing properties; Change of signal in IVD and joint cartilage between 3 and 24 hours ([4]; 100 nmol radiolabeled peptide): maintained or increased; Rank of signal in cartilage among SEQ ID NO: 109, 200, 110, 114 ([4]; 100 nmol radiolabeled peptide): highest signal in cartilage; Signal in synovial joints as a percentage of signal in blood, Average [4, 6]: 5627%; Signal in the intervertebral disc (IVD), Average [4, 6]: 2758%; Signal in synovial joints as a percentage of signal in blood, Average [4, 7]: 5097%; Signal in the intervertebral disc (IVD), Average [4, 7]: 4367%
GSVRIPVSCRHSGQCLRPCRDAGIVIRFGRCMNGRCDCTPR [SEQ ID NO: 110] | – | – | Cartilage homing (qualitative, WBA) ([4]; 100 nmol radiolabeled peptide): showed signal in cartilage and exhibited cartilage homing properties; Change of signal in IVD and joint cartilage between 3 and 24 hours ([4]; 100 nmol radiolabeled peptide): decreased; Signal in synovial joints as a percentage of signal in blood, Average [4, 6]: 3142%; Signal in the intervertebral disc (IVD), Average [4, 6]: 2374%; Signal in synovial joints as a percentage of signal in blood, Average [4, 7]: 981%; Signal in the intervertebral disc (IVD), Average [4, 7]: 1327%
VFINVKCRGSPECLPKCKEAIGKSAGKCMNGKCKCYP [SEQ ID NO: 422] | – | – | Cartilage homing [3]: homes to cartilage
